Results as given in publication PMC6300356, “DNA translocation mechanism of an XPD family helicase”.

Target: T1, DinG (Escherichia coli, UniProt P27296 1-716)
T1 sequence: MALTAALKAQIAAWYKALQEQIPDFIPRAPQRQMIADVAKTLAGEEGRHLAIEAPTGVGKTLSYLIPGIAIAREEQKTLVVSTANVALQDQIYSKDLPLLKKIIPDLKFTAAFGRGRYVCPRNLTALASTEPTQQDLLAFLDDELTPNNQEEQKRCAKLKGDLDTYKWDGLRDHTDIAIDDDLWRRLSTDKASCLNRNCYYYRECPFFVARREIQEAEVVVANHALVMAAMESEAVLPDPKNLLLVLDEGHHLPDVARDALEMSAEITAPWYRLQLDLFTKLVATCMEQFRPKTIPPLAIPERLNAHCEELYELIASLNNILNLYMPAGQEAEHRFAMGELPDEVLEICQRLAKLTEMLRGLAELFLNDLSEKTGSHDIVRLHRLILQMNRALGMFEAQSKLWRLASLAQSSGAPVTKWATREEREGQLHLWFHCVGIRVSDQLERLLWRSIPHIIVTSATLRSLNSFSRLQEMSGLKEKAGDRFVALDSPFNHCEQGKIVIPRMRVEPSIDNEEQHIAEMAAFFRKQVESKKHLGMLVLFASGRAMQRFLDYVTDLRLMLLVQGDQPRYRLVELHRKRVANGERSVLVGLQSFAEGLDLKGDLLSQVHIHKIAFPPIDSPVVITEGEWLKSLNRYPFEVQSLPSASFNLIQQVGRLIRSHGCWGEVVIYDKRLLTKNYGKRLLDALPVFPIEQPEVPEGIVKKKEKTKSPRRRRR
Test: X-ray crystallography (2.5 A); binary complex, no nucleotide; MST: 25 mM Tris pH 8.0, 200 mM NaCl, 1 mM DTT, 5% glycerol, 25 C, 10 nM ssDNA
Details: protein: recombinant; tags: His6-MBP-TEV N-terminal, removed by TEV

## TTTTTTTTTTTT (ssDNA) [dT12 (12 base oligo-dT)]
  binding result: binds
